Residue numbers refer to the chain shown, from its start. In names and notes the source's numbering stands. One block for each molecule: values may come before it.
How the values were obtained:
[1] = target: T1, YfkE (Bacillus subtilis, UniProt O34840); assay: biochemical
T1 construct: gene chaA

[2] = substrate: O=P(O)(O)O; assay: cells, lysate or membranes; settings: outward H+ gradient by NADH, room temperature, labelled compound
[3] = co-substrate Ca2+, 5x more vesicles than WT
[4] = co-substrate Ca2+, residue printed R3 in table but R4 in text

Kd [1]: 930 ± 360 µM
Molecule: O=P(O)(O)O [inorganic phosphate]

B1: YfkE (Bacillus subtilis subsp. subtilis str. 168) (protein)
chain: MNRIFFILVAAGVPLSVIGSLMHWPSAVLFAVYCVTIIALASYMGRATESLSIIAGPRIGGLLNATFGNAVELIISLFALKEGLTGIVLASLTGSVLGNLLLVAGLSFFVGGLKYKRQEFNIHDARHNSGLLIFAIIVAFVIPEVFSVGMGNASKLNLSIGISIIMILLYVAALYFKLVTHRGVYQPNNAAQTEEEEEPEWSGKVATIVLFAATIVVAYISENLVHTFHSVAEQFGWSELFIGVIIVAIVGNAAEHASAIIMAFKNKMDIAVEIAVGSTLQIAMFVAPVLVICSIFFPTSMPLVFTLPELVAMVSAVLLMIAISNDGDSNWFEGATLLAAYVIMAIGFFLL
Km ([2]; co-substrate Ca2+ 0.1 mM): 4.9 mM

B2: YfkE (Bacillus subtilis subsp. subtilis str. 168; N99A) (protein)
chain: B1 chain with N99A
Km [2, 3]: 12.4 mM
Vmax [2, 3]: 3.9e-05 µmol/min/mg

B3: YfkE (Bacillus subtilis subsp. subtilis str. 168; R3A) (protein)
chain: B1 chain with R3A
Km [2, 4]: 5.5 mM
Vmax [2, 4]: 7.5e-05 µmol/min/mg

B4: YfkE (Bacillus subtilis subsp. subtilis str. 168; Q281A) (protein)
chain: B1 chain with Q281A
Km [2, 3]: 29.9 mM
Vmax [2, 3]: 1.9e-05 µmol/min/mg

B5: YfkE (Bacillus subtilis subsp. subtilis str. 168; H256A) (protein)
chain: B1 chain with H256A
Km [2, 3]: 34.2 mM
Vmax [2, 3]: 5.1e-05 µmol/min/mg

B6: YfkE (Bacillus subtilis subsp. subtilis str. 168; N252A) (protein)
chain: B1 chain with N252A
Km [2, 3]: 8.2 mM
Vmax [2, 3]: 1.9e-05 µmol/min/mg

Reference: publication PMC10227063 (Communications Biology, 2023)
